Experimental data reported in publication PMC7782867 (2020).
Values belong to the binder of their own block, whether it stands above or below them. Square brackets hold non-standard residues; d marks the D form. Ends that are not written are not given here. pS = N[C@@H](COP(=O)(O)O)C(=O)O

What was measured:
[1] = molecular target: T1, CRIPT (Drosophila melanogaster); assay: ITC
T1 chain: GKKIMNTKNYKQSST

[2] = molecular target: T2, CRIPT (Drosophila melanogaster); assay: ITC
T2 chain: YRQS[pS]T

[3] = molecular target: T3, CRIPT (Octopus bimaculoides); assay: stopped-flow
T3 chain: YRQSSV

[4] = molecular target: T4, ancestral Eukaryota CRIPT; assay: stopped-flow
T4 chain: YKQSSV

[5] = molecular target: T5, CRIPT (Homo sapiens); assay: stopped-flow
T5 chain: YKQTSV

[6] = molecular target: T6, CRIPT (Hydra vulgaris); assay: stopped-flow
T6 chain: YRQTSC

[7] = molecular target: T5, CRIPT; assay: ITC
[8] = molecular target: T7, CRIPT (Drosophila melanogaster); assay: ITC
T7 chain: YRQSST

Kd [1]: 34 µM | Kd [2]: 40 µM
B1: DLG PDZ3 α3 PDZ3-α3 (protein)
chain: REPRTITIQKGPQGLGFNIVGGEDGQGIYVSFILAGGPADLGSELKRGDQLLSVNNVNLTHATHEEAAQALKTSGGVVTLLAQYRPEEYNRFEARI

B2: DLG4 PDZ3 PDZ3 (protein)
chain: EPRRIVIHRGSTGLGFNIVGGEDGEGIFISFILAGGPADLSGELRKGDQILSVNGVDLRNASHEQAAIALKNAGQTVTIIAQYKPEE
Kd [3]: 1.24 µM | Kd [4]: 2.18 µM | Kd [5]: 0.395 µM | Kd [6]: 0.36 µM | Kd [7]: 0.7 µM

Kd [4]: 0.67 µM | Kd [8]: 27 µM
B3: DLG PDZ3 PDZ3 (protein)
chain: EPRTITIQKGPQGLGFNIVGGEDGQGIYVSFILAGGPADLGSELKRGDQLLSVNNVNLTHATHEEAAQALKTSGGVVTLLAQYRPEEY
